Results: patent US20050106647A1
Read-outs that look alike come from different tables or passages of the source.

Tests used:
[1] = molecular target: PA-BODIPY conjugate (Bacillus anthracis protective antigen conjugated to BODIPY FL) (Bacillus anthracis) (UniProt P13423)
[2] = molecular target: PA-BODIPY conjugate (Bacillus anthracis protective antigen conjugated to BODIPY FL) (Bacillus anthracis) (UniProt P13423); remark: listed apart in the source

Sequence of PA-BODIPY conjugate (Bacillus anthracis protective antigen conjugated to BODIPY FL) (Bacillus anthracis) (P13423 30-764 limits assumed): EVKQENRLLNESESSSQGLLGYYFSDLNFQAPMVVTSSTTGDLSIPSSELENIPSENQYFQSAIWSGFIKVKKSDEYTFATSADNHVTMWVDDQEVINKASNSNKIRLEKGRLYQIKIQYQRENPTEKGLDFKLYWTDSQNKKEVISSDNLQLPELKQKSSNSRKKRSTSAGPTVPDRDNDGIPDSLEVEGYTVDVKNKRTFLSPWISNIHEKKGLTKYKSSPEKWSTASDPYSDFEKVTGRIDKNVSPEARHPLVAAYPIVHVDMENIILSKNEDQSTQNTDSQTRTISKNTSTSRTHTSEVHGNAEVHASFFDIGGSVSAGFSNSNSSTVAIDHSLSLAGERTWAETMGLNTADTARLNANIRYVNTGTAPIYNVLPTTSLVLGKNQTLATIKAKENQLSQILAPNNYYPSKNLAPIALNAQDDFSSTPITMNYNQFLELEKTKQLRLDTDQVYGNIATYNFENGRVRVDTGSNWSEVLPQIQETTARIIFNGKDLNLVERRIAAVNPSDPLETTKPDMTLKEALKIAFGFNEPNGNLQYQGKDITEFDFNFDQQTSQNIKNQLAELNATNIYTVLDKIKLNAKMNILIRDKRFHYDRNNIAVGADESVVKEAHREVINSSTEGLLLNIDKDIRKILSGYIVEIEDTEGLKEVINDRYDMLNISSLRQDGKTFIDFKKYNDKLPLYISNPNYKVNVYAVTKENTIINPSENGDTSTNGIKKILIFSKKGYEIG
Sequence of NlpA-[Dig scFv] (26-10 anti-digoxin/digoxigenin scFv) fusion anchored on the E. coli inner membrane (P04846 whole entry, looked up, the tested form may be a part): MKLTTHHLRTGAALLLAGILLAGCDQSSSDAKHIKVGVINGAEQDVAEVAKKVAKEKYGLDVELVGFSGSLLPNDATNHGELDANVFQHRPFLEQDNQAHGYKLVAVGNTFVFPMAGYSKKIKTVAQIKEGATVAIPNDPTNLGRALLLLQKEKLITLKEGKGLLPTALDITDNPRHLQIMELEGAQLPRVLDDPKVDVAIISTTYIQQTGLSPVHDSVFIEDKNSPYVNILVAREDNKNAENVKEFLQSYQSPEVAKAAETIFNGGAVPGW
Sequence of 26-10 anti-digoxin/digoxigenin scFv-g3p fusion (pAK200) (P69168 268-424): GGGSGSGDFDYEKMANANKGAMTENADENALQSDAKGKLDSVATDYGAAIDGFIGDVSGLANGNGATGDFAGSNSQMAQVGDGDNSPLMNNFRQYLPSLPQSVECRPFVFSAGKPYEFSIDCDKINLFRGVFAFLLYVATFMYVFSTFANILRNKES

| Substance | mean fluorescence (M) [1] | mean fluorescence (M) [2] |
| --- | --- | --- |
| 26-10 anti-digoxin/digoxigenin scFv-g3p fusion (pAK200) (from UniProt P69168 268-424) | 7.25 |  |
| NlpA-[Dig scFv] (26-10 anti-digoxin/digoxigenin scFv) fusion anchored on the E. coli inner membrane (from UniProt P04846 24-29) | 4.48 | 2.97 |
